In patent publication US20210032305A1 (KINDRED BIOSCIENCES, published 2021):

T1: human EPOR-Fc (Catalog No. 963-ER-050, R&D Systems) (human, UniProt P19235 25-250, biotinylated in Example 10 only)
T1 construct: extracellular domain; treated as one molecule; also called extracellular domain of human EPOR; human EPO receptor; not shown: Fc part of the bought EPOR-Fc
T1 sequence (looked up): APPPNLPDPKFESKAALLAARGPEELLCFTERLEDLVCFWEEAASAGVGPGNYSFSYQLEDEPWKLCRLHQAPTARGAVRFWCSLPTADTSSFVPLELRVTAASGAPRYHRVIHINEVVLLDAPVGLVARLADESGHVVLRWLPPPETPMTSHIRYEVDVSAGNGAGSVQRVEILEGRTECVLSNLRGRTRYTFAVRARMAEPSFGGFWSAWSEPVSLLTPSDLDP

T2: human EPOR on TF-1 cells (human, UniProt P19235 25-508)
T2 sequence (looked up): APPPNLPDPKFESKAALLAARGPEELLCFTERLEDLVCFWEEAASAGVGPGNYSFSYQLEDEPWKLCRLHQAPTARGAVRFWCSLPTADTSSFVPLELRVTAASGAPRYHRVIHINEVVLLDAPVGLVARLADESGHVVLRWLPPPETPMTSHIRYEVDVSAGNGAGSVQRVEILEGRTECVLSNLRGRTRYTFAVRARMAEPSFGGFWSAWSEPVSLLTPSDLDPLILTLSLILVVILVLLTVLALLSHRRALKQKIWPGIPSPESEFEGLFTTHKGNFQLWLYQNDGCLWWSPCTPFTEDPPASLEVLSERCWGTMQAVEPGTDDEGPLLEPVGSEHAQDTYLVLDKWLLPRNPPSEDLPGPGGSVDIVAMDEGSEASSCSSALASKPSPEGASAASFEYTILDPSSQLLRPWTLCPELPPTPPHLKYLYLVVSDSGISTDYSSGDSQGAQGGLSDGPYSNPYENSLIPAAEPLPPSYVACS


Assays:
[1] = molecular target: T3, Feline EPOR202_ECD_human Fc (feline EPOR fused to human Fc, biotinylated with EZ-Link NHS-LC-biotin); experiment: biolayer interferometry (ForteBio); biotinylated receptor-Fc on streptavidin tips, EPO analog 150-1.9 nM, 1:1 fit
T3 construct: also called fEPOR202_ECD-Fc; feline EPOR202-ECD-Fc
Method: (§1) The binding analysis was performed as follows. Briefly, fEPOR201_ECD-Fc and fEPOR202_ECD-Fc were biotinylated using EZ-Link NHS-LC-biotin (Catalog No. 21336, Thermo Scientific). The free unreacted biotin was removed by dialysis. Biotinylated fEPOR201_ECD-Fc and fEPOR202_ECD-Fc were captured on streptavidin sensor tips (Catalog No. 18-509, ForteBio).
(§2) Dissociation was monitored for 600 seconds. A buffer only blank curve was subtracted to correct for any drift. The data were fit to a 1:1 binding model using ForteBio™ data analysis software to determine the kₒₙ (association rate constant), koff (dissociation rate constant) and the Kd (dissociation constant). […] The buffer for dilutions and all binding steps was: 200 mM phosphate, 150 mM NaCl, 0.02% Tween-20, 0.05% sodium azide, and 0.1 mg BSA, pH7.4.

[2] = molecular target: T4, Feline EPOR201_ECD_human Fc (feline EPOR fused to human Fc, biotinylated with EZ-Link NHS-LC-biotin); experiment: as above
T4 construct: also called fEPOR201_ECD-Fc; feline EPOR201-ECD-Fc
Method: as §1, §2

[3] = molecular target: T1, human EPOR-Fc (Catalog No. 963-ER-050, …); experiment: biolayer interferometry (ForteBio); biotinylated human EPOR on streptavidin tips, EPO analog 20-0.25 nM, 1:1 fit
From the text: Dissociation was monitored for 600 seconds. A buffer only blank curve was subtracted to correct for any drift.

human EPOR on TF-1 cells = molecular target: T2, human EPOR on TF-1 cells; experiment: cell-based or functional assay
[4] = molecular target: T1, human EPOR-Fc (Catalog No. 963-ER-050, …); experiment: ELISA 2: as ELISA 1, EPO sample treated with neuraminidase first
Method: (§3) A 96-well plate was coated with a mouse anti-EPO specific antibody (Catalog No. MAB287, clone 9C21D11, R&D Systems) to capture the EPO polypeptides. The EPO-bound wells were incubated with human EPOR-Fc at a concentration of 200 ng/mL and the bound EPOR was detected by anti-human Fc HRP conjugated antibody. The ELISA was performed a second time, but the three samples of EPO polypeptides were first treated with neuraminidase to remove the sialic acid.

[5] = molecular target: T1, human EPOR-Fc (Catalog No. 963-ER-050, …); experiment: ELISA 1: EPO analog captured by mouse anti-EPO antibody (MAB287), human EPOR-Fc at 200 ng/mL, anti-human Fc HRP
Method: as §3

[6] = molecular target: T5, Feline EPOR203_39A_ECD_Fc (feline EPOR fused to human Fc); experiment: sandwich ELISA: plate coated with anti-human EPO antibody, Analog 6-30 EV Mature captured in 2-fold dilutions from 500 ng/mL, feline EPOR203_39A_ECD_Fc added at 200 ng/mL, detected with anti-human Fc HRP; 4-parameter fit. The axis 'Conc' prints no unit; ng/mL is from paragraph 333
T5 construct: also called feline EPOR203-ECD-Fc; fEPOR203_ECD-Fc
Method: Feline EPOR203_39A_ECD_Fc (200 ng/mL in 1% BSA-PBST buffer) was added to each well and binding allowed to proceed for 1 hour at room temperature. A rabbit anti-human Fc antibody and horseradish peroxidase (HRP) conjugate (0.2 μg/mL) was used for detection and left in the wells for 1 hour at room temperature. 3,3,5,5′-Tetramethylbenzidine (TMB) was applied to the wells as the HRP substrate and kept in the well for 5 to 7 minutes for signal development.

T4 sequence (chain, as listed by the source limits assumed): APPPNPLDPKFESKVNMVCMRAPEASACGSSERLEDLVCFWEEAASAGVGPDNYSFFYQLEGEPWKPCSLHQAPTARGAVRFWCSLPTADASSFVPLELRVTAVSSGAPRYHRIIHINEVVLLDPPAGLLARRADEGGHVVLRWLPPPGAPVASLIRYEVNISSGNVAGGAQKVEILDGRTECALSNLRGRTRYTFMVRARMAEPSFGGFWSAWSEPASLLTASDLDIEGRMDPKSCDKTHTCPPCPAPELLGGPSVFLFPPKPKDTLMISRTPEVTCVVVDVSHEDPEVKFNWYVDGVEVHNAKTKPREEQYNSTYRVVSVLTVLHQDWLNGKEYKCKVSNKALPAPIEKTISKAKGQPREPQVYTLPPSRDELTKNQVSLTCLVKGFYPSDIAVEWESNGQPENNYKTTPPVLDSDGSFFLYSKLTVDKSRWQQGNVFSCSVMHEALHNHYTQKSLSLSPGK
T3 sequence (chain, as listed by the source limits assumed): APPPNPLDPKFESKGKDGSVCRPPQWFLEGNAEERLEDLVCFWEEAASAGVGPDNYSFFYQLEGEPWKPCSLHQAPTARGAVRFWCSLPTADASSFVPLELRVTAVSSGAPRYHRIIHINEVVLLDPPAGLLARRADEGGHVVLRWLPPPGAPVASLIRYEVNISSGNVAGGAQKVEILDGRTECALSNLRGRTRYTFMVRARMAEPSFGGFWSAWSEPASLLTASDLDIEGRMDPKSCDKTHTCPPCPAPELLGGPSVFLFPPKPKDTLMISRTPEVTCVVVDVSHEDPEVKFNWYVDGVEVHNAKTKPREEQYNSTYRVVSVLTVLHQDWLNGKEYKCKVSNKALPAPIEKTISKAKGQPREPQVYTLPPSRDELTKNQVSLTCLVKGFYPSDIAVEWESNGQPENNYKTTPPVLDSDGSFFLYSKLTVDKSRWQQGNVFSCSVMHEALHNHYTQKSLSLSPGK
T5 sequence (chain, as listed by the source limits assumed): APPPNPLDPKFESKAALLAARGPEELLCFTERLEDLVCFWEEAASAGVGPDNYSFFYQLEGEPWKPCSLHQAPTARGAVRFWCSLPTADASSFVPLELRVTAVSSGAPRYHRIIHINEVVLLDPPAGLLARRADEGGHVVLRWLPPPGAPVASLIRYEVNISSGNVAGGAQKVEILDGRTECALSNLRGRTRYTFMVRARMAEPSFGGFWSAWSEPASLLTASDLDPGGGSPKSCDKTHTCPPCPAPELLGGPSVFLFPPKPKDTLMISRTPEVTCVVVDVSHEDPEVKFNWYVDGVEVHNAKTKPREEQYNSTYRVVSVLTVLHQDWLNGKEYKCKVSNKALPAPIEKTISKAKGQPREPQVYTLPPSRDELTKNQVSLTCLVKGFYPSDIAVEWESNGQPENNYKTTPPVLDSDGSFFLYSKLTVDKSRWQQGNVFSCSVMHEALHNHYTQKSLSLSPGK

| EC50, TF-1 cell proliferation (MTT) (human EPOR on TF-1 cells) | EC50 [4] | EC50 [5] | Binder | other results |
| --- | --- | --- | --- | --- |
| 0.3 IU/mL |  |  | Feline EPO Analog 6-30 G18V87 mature form (Analog 6-30 GV Mature) (ligand, N-linked glycosylated and sialylated (CHO DG-44 expressed); fraction not specified in this assay, also called feline EPO Analog 6-30 GV Mature) APPRLICDSRVLERYILGAREAENVTMGCNETCSFSENITVPDTKVNFYTWKRMDVGQQAVEVWQGLALLSEAILRGQALLANSSQVNETLQLHVDKAVSSLRSLTSLLRALGAQKEATSLPEATSAAPLRTFTVDTLCKLFRIYSNFLRGKLTLYTGEACRRGDR | Kd [1]: 0.17 nM; Kd [2]: 0.4 nM; Kd [3]: 0.0976 nM |
|  | 0.031 µg/mL | 0.035 µg/mL | Analog 6-30 GV Mature (basic fraction) (ligand, N-linked glycosylated; low sialylation, isoelectric point range of about 4 to about 5 (Example 15), about 3.5 to about 5 (Example 6), Same polypeptide as m1; glycoform fraction; In ELISA 2 it was treated with neuraminidase first; also called basic (low sialylation) fraction of Analog 6-30 GV Mature) APPRLICDSRVLERYILGAREAENVTMGCNETCSFSENITVPDTKVNFYTWKRMDVGQQAVEVWQGLALLSEAILRGQALLANSSQVNETLQLHVDKAVSSLRSLTSLLRALGAQKEATSLPEATSAAPLRTFTVDTLCKLFRIYSNFLRGKLTLYTGEACRRGDR |  |
| 0.00478 µg/mL |  |  | Feline EPO Analog 6-30 E18V87 mature form (Analog 6-30 EV Mature) (ligand, N-linked glycosylated and sialylated (CHO DG-44 expressed); fraction not specified in this assay, also called Feline Analog 6-30 EV Mature; Sample 1) APPRLICDSRVLERYILEAREAENVTMGCNETCSFSENITVPDTKVNFYTWKRMDVGQQAVEVWQGLALLSEAILRGQALLANSSQVNETLQLHVDKAVSSLRSLTSLLRALGAQKEATSLPEATSAAPLRTFTVDTLCKLFRIYSNFLRGKLTLYTGEACRRGDR | EC50 [6]: 0.088 µg/mL |
|  | 0.018 µg/mL | 0.1 µg/mL | Analog 6-30 GV Mature (acidic fraction) (ligand, N-linked glycosylated; high sialylation, isoelectric point range of about 2 to about 3.5, Same polypeptide as m1; glycoform fraction; In ELISA 2 it was treated with neuraminidase first; also called acidic (high sialylation) fraction of Analog 6-30 GV Mature) APPRLICDSRVLERYILGAREAENVTMGCNETCSFSENITVPDTKVNFYTWKRMDVGQQAVEVWQGLALLSEAILRGQALLANSSQVNETLQLHVDKAVSSLRSLTSLLRALGAQKEATSLPEATSAAPLRTFTVDTLCKLFRIYSNFLRGKLTLYTGEACRRGDR |  |
|  | 0.02 µg/mL | 0.045 µg/mL | Analog 6-30 EV Mature (acidic fraction) (ligand, N-linked glycosylated; high sialylation (acidic fraction), Same polypeptide as m4; glycoform fraction; In ELISA 2 it was treated with neuraminidase first; also called acidic (high sialylation) fraction of Analog 6-30 EV Mature) APPRLICDSRVLERYILEAREAENVTMGCNETCSFSENITVPDTKVNFYTWKRMDVGQQAVEVWQGLALLSEAILRGQALLANSSQVNETLQLHVDKAVSSLRSLTSLLRALGAQKEATSLPEATSAAPLRTFTVDTLCKLFRIYSNFLRGKLTLYTGEACRRGDR |  |
